Experimental data published in US20060134736A1.

Target: full-length human growth hormone receptor (stably transfected in BaF3 cells, cell line Baf-B03 B2B2) (human) (UniProt P10912)
Experiment: cell-based or functional assay

Chain of UniProt P10912 (P10912 19-638): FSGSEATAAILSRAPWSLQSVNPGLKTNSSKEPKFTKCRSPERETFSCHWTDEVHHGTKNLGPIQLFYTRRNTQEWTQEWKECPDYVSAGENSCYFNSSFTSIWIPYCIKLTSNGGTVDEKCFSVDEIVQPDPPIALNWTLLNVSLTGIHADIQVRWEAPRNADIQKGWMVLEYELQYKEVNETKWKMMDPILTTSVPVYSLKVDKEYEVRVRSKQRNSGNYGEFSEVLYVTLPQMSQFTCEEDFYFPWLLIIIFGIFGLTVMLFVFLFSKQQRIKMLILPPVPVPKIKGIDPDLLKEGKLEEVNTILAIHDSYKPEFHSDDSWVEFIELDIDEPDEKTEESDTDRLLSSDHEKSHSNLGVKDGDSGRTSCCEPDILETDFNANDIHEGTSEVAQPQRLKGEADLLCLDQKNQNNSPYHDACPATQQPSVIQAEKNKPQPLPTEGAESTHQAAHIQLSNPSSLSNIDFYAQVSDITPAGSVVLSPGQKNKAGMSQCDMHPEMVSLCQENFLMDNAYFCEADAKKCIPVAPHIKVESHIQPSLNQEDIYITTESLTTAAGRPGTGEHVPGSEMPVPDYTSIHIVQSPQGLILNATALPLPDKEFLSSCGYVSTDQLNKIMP

Row | Specific Activity (IU/mg) in the Cell Proliferation Assay | Substance
1 | 0.25 IU/mg | Di-PEG-hGH (two PEGs attached to one hGH molecule, Lot No BPM#04-004) (from UniProt P01241 27-217) (ligand)
2 | 0.46 IU/mg | Mono-PEG-hGH (one PEG attached to one hGH molecule, Lot No BPM#04-003) (from UniProt P01241 27-217) (ligand)
